The record followed here is patent US20260116958A1 (University of California, published 2026).

Substitutions are numbered along the chain they refer to.

B1: hu6G6 variant A3 scFv (scFv)
scFv: QVQLVQSGAEVKKPGASVKLSCKASGFNIKDTYMHWVRQAPGQGLEWIGRIDPANGNTKYDPKFQGRATITAGTSINTAYLELSRLRSDDTAVYYCASGPNYYGTTWFAYWGQGTTVTVSSVDLKSGGSTSGSGKPGSGEGSSGSARKIVLTQSPSTLSASVGDRVTITCRASHGISNYLAWYQQKPGRAPKLLIYKASTLHIGVPSRFSGSGSGTEFALTISSLQPDDFSTYYCQQYISYLPHTFGQGTRLEIK
B2: hu6G6 variant B8.1 scFv (scFv)
scFv: B1 scFv with K12N, G73Y, I76F, K148E, I239N
B3: hu6G6 variant B8 scFv (scFv)
scFv: B1 scFv with K12N, G73Y, I76F, T115S, K148E, I239N
B4: hu6G6 variant A4 scFv (scFv)
scFv: B1 scFv with A54E, G73Y, T74K, G132D, K148E, I239N
B5: hu6G6 variant A3.1 scFv (scFv)
scFv: B1 scFv with K148E, I239N
B6: Hu6G7.1 scFv (scFv, V domains shown)
VH: QVQLVQSGAEVKKPGASVKVSCKASDYSFTDYNIYWVRQTPGQGLEWIGYIDPYNGGTSYNQKFKGRATLTVDKSISTAYMELSRLRSDDTAVYYCALYGYDPDYIDYWGQGTTLTVSS
VL: DIVLTQSPASMAVSPGQRVTITCSASSSVSYLHWFQQKPGQSPKLWIYSTSNLASGVPARFSGSGSGTDYTLTINPMEAEDTATYYCQQRSSYPYTFGQGTKLEIKR
B7: hu6G6.1 IgG (antibody, V domains shown)
VH: QVQLVQSGAEVKKPGASVKLSCKASGFNIKDTYMHWVRQAPGQGLEWIGRIDPENGNTKYDPKFQGRATITAYKSINTAYLELSRLRSDDTAVYYCASGPNYYGTTWFAYWGQGTTVTVSS
VL: EIVLTQSPSTLSASVGDRVTITCRASHGISNYLAWYQQKPGRAPKLLIYKASTLHIGVPSRFSGSGSGTEFALTISSLQPDDFSTYYCQQYNSYLPHTFGQGTRLEIKR

The first test deals with inactive BoNT/G (BoNT/Gi) (Clostridium botulinum) (UniProt Q60393). In words: flow cytometry, scFv on yeast; against hu6G6 Wt. (In general: In flow cytometry, cells or beads pass a laser one at a time.)
The molecule B1 came in with an Improvement over WT of 4.5 fold.
On the same count and under the same terms, the result for B2 reads 4.3 fold; that for B3, 6.2 fold.
The same measure, in the same setting: the result for B4 reads 6.8 fold; that for B5, 3.5 fold.

The target in a further test is T1, inactive BoNT/G (BoNT/Gi) (Clostridium botulinum, UniProt Q60393 1-1297).
T1 sequence: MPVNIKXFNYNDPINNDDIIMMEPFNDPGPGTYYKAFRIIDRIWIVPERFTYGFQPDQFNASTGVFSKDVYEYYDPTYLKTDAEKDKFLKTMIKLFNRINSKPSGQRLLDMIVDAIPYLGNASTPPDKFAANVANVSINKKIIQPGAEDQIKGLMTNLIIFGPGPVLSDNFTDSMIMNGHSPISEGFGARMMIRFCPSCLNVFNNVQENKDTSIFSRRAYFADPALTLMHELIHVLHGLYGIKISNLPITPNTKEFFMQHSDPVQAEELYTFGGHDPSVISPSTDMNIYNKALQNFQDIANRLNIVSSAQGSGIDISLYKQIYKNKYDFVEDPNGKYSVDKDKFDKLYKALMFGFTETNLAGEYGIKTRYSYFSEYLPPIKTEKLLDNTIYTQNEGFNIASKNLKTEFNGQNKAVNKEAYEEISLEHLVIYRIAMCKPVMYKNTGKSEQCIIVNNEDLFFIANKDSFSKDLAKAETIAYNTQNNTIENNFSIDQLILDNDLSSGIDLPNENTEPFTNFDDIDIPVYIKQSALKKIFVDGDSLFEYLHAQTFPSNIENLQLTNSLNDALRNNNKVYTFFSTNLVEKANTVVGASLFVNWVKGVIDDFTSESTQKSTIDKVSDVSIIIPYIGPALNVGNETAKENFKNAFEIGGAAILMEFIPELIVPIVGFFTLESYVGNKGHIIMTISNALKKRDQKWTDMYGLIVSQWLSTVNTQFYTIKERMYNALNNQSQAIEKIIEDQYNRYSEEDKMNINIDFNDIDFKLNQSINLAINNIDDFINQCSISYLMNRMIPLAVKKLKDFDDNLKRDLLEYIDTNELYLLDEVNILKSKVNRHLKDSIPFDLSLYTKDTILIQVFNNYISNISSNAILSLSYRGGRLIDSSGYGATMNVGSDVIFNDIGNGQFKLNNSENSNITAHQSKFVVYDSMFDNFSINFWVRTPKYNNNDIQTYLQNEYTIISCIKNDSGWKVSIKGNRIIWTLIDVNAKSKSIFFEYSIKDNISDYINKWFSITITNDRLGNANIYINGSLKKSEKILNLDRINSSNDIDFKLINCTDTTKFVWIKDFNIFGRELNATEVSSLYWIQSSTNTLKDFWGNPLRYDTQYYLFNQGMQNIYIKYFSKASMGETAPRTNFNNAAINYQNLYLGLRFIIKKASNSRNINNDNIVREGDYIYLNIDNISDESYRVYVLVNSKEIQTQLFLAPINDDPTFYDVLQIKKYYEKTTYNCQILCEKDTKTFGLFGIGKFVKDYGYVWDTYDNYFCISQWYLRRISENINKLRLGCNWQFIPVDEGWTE
In words: flow cytometry, scFv on yeast.
Take B6: the “fold lower affinity than murine 6G7.1” value was determined as 10 fold.

The next test addresses inactive BoNT/G (BoNT/Gi) (Clostridium botulinum) (UniProt Q60393). In words: flow cytometry, scFv on yeast.
Broadly, the Kd is the free concentration of one partner at which half of the binding sites on the other are occupied at equilibrium, for simple one-to-one binding. Lower therefore signals higher affinity. Consider B1, for which the Kd stood at 5.18 nM.
Same read-out and setting: the result for B2 reads 5.43 nM.
On the same count and under the same terms, as for B3, the figure is 3.75 nM.
For B4, the Kd is 3.46 nM.
The same measure, in the same setting: as for B5, the figure is 6.5 nM.

The target of a further test is T2, active BoNT/G holotoxin (Clostridium botulinum, UniProt Q60393 2-1297).
T2 sequence: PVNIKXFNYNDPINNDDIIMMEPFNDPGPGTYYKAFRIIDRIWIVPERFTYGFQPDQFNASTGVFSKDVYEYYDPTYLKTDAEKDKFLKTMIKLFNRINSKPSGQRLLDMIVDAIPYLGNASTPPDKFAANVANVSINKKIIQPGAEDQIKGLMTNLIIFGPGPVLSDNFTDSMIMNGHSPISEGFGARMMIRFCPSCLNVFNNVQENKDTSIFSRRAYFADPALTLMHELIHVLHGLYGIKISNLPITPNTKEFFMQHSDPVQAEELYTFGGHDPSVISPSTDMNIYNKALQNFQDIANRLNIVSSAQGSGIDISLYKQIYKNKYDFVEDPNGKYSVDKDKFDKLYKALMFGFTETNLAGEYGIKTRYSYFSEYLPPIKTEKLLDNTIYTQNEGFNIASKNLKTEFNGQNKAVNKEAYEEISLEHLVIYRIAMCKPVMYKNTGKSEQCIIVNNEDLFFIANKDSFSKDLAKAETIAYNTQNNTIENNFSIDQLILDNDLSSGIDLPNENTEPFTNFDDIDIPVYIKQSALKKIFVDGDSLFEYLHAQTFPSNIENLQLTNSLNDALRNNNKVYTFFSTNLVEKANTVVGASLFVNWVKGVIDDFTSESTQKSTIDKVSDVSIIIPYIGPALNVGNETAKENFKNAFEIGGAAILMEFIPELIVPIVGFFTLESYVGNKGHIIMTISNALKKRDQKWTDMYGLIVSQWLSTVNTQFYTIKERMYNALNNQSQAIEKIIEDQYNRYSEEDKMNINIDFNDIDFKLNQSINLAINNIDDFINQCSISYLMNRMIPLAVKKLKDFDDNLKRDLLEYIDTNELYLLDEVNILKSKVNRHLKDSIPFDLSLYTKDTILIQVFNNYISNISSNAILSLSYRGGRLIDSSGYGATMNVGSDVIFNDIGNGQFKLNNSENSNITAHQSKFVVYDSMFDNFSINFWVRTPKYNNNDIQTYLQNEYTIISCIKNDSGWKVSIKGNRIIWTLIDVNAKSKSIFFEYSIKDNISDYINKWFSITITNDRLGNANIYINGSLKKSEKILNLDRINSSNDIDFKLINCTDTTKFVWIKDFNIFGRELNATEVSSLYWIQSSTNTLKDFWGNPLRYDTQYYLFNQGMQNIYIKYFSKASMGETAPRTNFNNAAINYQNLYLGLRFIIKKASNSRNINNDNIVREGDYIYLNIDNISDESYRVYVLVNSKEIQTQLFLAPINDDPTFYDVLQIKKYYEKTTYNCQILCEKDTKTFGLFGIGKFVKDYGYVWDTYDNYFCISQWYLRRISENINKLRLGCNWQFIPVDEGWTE
Assay: not given
For the molecule B7, the Kd was found to be 0.476 nM.
